{
  "source": "patent US20260217843A1",
  "key": {"[1]": {"target": "hOX40L added as soluble protein in cell assays (human) (UniProt P23510)", "sequence (P23510 51-183 limits assumed)": "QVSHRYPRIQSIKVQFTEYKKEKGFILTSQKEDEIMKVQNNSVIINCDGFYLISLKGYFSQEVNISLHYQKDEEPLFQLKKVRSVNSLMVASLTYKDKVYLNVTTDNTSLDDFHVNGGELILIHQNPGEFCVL", "test": "cell-based or functional assay"}, "[2]": {"target": "Recombinant Human OX40L Protein, His Tag (Acro Cat. IL3-H52H4) (human) (UniProt P23510)", "sequence (P23510 51-183 limits assumed)": "as above", "test": "SPR (Biacore 8K), antibody captured, human OX40L injected, 1:1 fit"}},
  "data": [
    {"binder": "positive control based on the sequences of the anti-hOX40L antibody amlitelimab (antibody, IgG4, V domains shown) VH: EVQLVESGGGLVQPGGSLRLSCAASGFTFSNYAMNWVRQAPGKGLEWVSTISGSGGATRYADSVKGRFTISRDNSRNTVYLQMNSLRVEDTAVFYCTKDRLIMATVRGPYYYGMDVWGQGTTVTVSS VL: DIQMTQSPSSLSASVGDRVTITCRASQSISSYLNWYQQKPGKAPNLLIYAASSLQSGVPSRFSGSGSETDFTLTISSLQPEDFATYYCQQSHSVSFTFGPGTKVDIK", "values": [
      {"measurement": "IC50, luminescence (RLU), hOX40 reporter cells with 50 ng/mL hOX40L", "setting": "[1]", "result": 1.17, "unit": "nM"},
      {"measurement": "Mean IFNγ concentration, MLR + OX40L (1000 ng/ml); donor pairing 1; antibody 4 nM", "setting": "[1]", "result": 201, "unit": "pg/mL"},
      {"measurement": "Mean IFNγ concentration, MLR + OX40L (1000 ng/ml); donor pairing 1; antibody 20 nM", "setting": "[1]", "result": 41.4, "unit": "pg/mL"},
      {"measurement": "Mean IFNγ concentration, MLR + OX40L (1000 ng/ml); donor pairing 1; antibody 100 nM", "setting": "[1]", "result": 145, "unit": "pg/mL"},
      {"measurement": "Mean IFNγ concentration, MLR + OX40L (1000 ng/ml); donor pairing 3; antibody 4 nM", "setting": "[1]", "result": 1050, "unit": "pg/mL"},
      {"measurement": "Mean IFNγ concentration, MLR + OX40L (1000 ng/ml); donor pairing 3; antibody 20 nM", "setting": "[1]", "result": 520, "unit": "pg/mL"},
      {"measurement": "Mean IFNγ concentration, MLR + OX40L (1000 ng/ml); donor pairing 3; antibody 100 nM", "setting": "[1]", "result": 75.4, "unit": "pg/mL"},
      {"measurement": "Mean IFNγ concentration, MLR + OX40L (1000 ng/ml); donor pairing 4; antibody 4 nM", "setting": "[1]", "result": 1170, "unit": "pg/mL"},
      {"measurement": "Mean IFNγ concentration, MLR + OX40L (1000 ng/ml); donor pairing 4; antibody 20 nM", "setting": "[1]", "result": 424, "unit": "pg/mL"},
      {"measurement": "Mean IFNγ concentration, MLR + OX40L (1000 ng/ml); donor pairing 4; antibody 100 nM", "setting": "[1]", "result": 161, "unit": "pg/mL"},
      {"measurement": "Mean IFNγ concentration, MLR + OX40L (1000 ng/ml); donor pairing 5; antibody 4 nM", "setting": "[1]", "result": 1350, "unit": "pg/mL"},
      {"measurement": "Mean IFNγ concentration, MLR + OX40L (1000 ng/ml); donor pairing 5; antibody 20 nM", "setting": "[1]", "result": 780, "unit": "pg/mL"},
      {"measurement": "Mean IFNγ concentration, MLR + OX40L (1000 ng/ml); donor pairing 5; antibody 100 nM", "setting": "[1]", "result": 878, "unit": "pg/mL"},
      {"measurement": "Mean IFNγ concentration, MLR + OX40L (1000 ng/ml); donor pairing 6; antibody 4 nM", "setting": "[1]", "result": 780, "unit": "pg/mL"},
      {"measurement": "Mean IFNγ concentration, MLR + OX40L (1000 ng/ml); donor pairing 6; antibody 20 nM", "setting": "[1]", "result": 279, "unit": "pg/mL"},
      {"measurement": "Mean IFNγ concentration, MLR + OX40L (1000 ng/ml); donor pairing 6; antibody 100 nM", "setting": "[1]", "result": 202, "unit": "pg/mL"},
      {"measurement": "Mean IFNγ concentration, MLR + OX40L (1000 ng/ml); donor pairing 8; antibody 4 nM", "setting": "[1]", "result": 17.3, "unit": "pg/mL"},
      {"measurement": "Mean IFNγ concentration, MLR + OX40L (1000 ng/ml); donor pairing 8; antibody 20 nM", "setting": "[1]", "result": 10.8, "unit": "pg/mL"},
      {"measurement": "Mean IFNγ concentration, MLR + OX40L (1000 ng/ml); donor pairing 8; antibody 100 nM", "setting": "[1]", "result": 92.5, "unit": "pg/mL"},
      {"measurement": "Kd", "setting": "[2]", "result": 0.071, "unit": "nM"},
      {"measurement": "koff", "setting": "[2]", "result": 0.000112, "unit": "s⁻¹"},
      {"measurement": "kon", "setting": "[2]", "result": "1.58e+06", "unit": "M⁻¹ s⁻¹"}
    ]}
  ]
}
